B1: CCL1: chemokine (protein, UniProt P22362 24-96, looked up)
C-C motif chemokine 1: KSMQVPFSRCCFSFAEQEIPLRAILCYRNTSSICSNEGLIFKLKRGKEACALDTVGWVQRHRKMLRHCPSKRK
B2: CCL21: chemokine (protein, UniProt O00585 24-134, looked up)
C-C motif chemokine 21: SDGGAQDCCLKYSQRKIPAKVVRSYRKQEPSLGCSIPAILFLPRKRSQAELCADPKELWVQQLMQHLDKTPSPQKPAQGCRKDRGASKTGKKGKGSKGCKRTERSQTPKGP
B3: CCL12: chemokine (protein, UniProt Q62401 23-104, looked up)
C-C motif chemokine 12: GPDAVSTPVTCCYNVVKQKIHVRKLKSYRRITSSQCPREAVIFRTILDKEICADPKEKWVKNSINHLDKTSQTFILEPSCLG
B4: VEGF-C: growth factor; lymphangiogenic factor (protein, UniProt P49767 112-227, looked up)
Vascular endothelial growth …: AHYNTEILKSIDNEWRKTQCMPREVCIDVGKEFGVATNTFFKPPCVSVYRCGGCCNSEGLQCMNTSTSYLSKTLFEITVPLSQGPKPVTISFANHTSCRCMSKLDVYRQVHSIIRR

How the values were obtained:
Format in all cases: cell-based
[1] = system: attachment of carcinoma cells to human LECs; experiment: In vitro human LEC attachment assay (ATP or MDA-MB-231 supernatant stimulation); settings: p<0.01, n=5
Method: The human LECs were plated to form a monolayer on type I collagen-coated 35 mm plates and incubated to confluence at 37° C. in 5% O2, 5% CO2, and 90% N2. The LECs were kept in serum-starved medium of EBM-2 with 3% FBS. Selected plates were treated with 10^−7M ATP or the supernatant of culture medium of MDA-MB-231 cells for 48 hrs. In some experiments, 10^−6M suramin was simultaneously added to the plates during 48 hrs. treatment with 10^−7M ATP or the culture medium supernatant of MDA-MB-231 cells.
In some experiments, the plates were also treated with anti-human-ICAM-1 antibody (available from R&D Systems, US) for 30 min after 48 hrs. treatment with the culture medium supernatant of MDA-MB-231 or 10^−7M ATP. Breast carcinoma cells stained with PKH26 fluorescent dye (available from SIGMA, US) were then plated at 5×10^4 cells per plate and incubated for 30 min. at 37° C. Unbound cells were removed by aspiration and the plates washed with DMEM/F12 three times. Attachment was quantitated by counting cells under ×100 magnification using a microscope (available from Leica, Switzerland).

[2] = system: ICAM-1 on human LECs; experiment: Immunohistochemical expression of ICAM-1 on cultured human LECs; settings: for staining with ICAM-1 on human LECs: 48 hrs. treatment with 100 ng/mL IL-6, 100 ng/mL VEGF-A, or 500 ng/mL VEGF-C; for expression of ICAM-1 on human LECs: 18 hrs.-stimulation with 10 ng/mL chemokine
[3] = system: ICAM-1 on human LECs; experiment: as above; settings: 48 hrs. simultaneous treatment with 10^−7 or 10^−6M antagonist; n=5
Method: (§1) Using an indirect immunohistochemical technique, the inventors examined the effects of the supernatants of culture medium of two kinds of carcinoma cells, MDA-MB-231 and MCF-7, on the expression of adhesion molecules such as E-selectin, P-selectin, vascular cell adhesion molecule (VCAM)-1, and intercellular adhesion molecule (ICAM)-1 on the human LECs. The carcinoma cells were plated in DMEM/F12 with 10% FBS, which was replaced the following day with DMEM/F12 with 3% FBS, and then collected after overnight culture. The collected solution was centrifuged at 2,000 rpm for 5 min. at 4° C. To examine the effects of the supernatants on the expression of the adhesion molecules on the human LECs, 1 mL of each collected solution was added to starvation culture medium, EBM-2 with 3% FBS of the human LECs, and then stimulated for 48 hrs. on the cells. In some experiments, the supernatant solutions at different concentrations (1/100 or 1/10,000 dilution) were constructed with appropriate volumes of DMEM/F12 with 3% FBS.
Indirect immunohistochemical studies were performed on the cultured LECs seeded or glass slides coated with type I collagen, and then the cells were fixed with 3.3% formalin in phosphate-buffered saline solution (PBS), for 20 min. at room temperature. […]
In some experiments, the effects of 10 ng/mL CCL2 on the immunohistochemical expression of ICAM-1 on the human LECs were also evaluated using the same procedure as that mentioned above after overnight neutralization of CCL2 in the starvation culture medium with a CCL2 specific antibody (1.0 μg/mL). […]
To quantitatively examine the immunohistochemical data concerning the expression of ICAM-1 on the human LECs, the high-resolution digital microphotographs were processed using the SCION IMAGE analysis program. […]

[4] = system: E-selectin on human LECs; experiment: Immunohistochemical expression of E-selectin on cultured human LECs
Method: as §1
(§2) Indirect immunohistochemical studies were performed on the cultured LECs seeded or glass slides coated with type I collagen, and then the cells were fixed with 3.3% formalin in phosphate-buffered saline solution (PBS), for 20 min. at room temperature. The cells were washed three times with PBS, and then incubated overnight at 4° C. with primary polyclonal human antisera to E-selectin/CD62E (dilution 10 μg/mL, available from R&D Systems, US), P-selectin/CD62P (dilution 10 μg/mL, available from R&D Systems, US), VCAM-1/CD106 (dilution 10 μg/mL, available from R&D Systems, US), and ICAM-1/CD54 (dilution 10 μg/mL, available from R&D Systems, US).
(§3) Before primary staining, the cultured cells were permeabilized with 0.1% TRITON-X. After washing three times in PBS, the cells were incubated for 1 hr. at room temperature with 1:100 diluted ALEXA FLUOR 488 donkey anti-mouse IgG (available from Invitrogen, US). The nuclei of cultured cells were counter-stained and mounted with PROLONG GOLD antifade reagent with 4′-6-diamidine-2-phenylindole (DAPI) (available from Molecular Probes, US), examined by a fluorescent microscope (Leica, Switzerland), and photographed.
(§4) Immunohistochemistry was performed on the cultured human LECs or the fresh-frozen SLNs isolated from the breast cancer patients. In brief, the cultured LECs were fixed with 10% formalin in the phosphate-buffered saline solution (PBS) at room temperature. The cells were incubated for 4 hrs. at room temperature with primary polyclonal human antisera platelet-endothelial cell adhesion molecule (PECAM)-1 (dilution 1:100, available from BD Biosciences, US), lymphatic vessel endothelial hyaluronan receptor (LYVE)-1 (dilution 1:50, available from RELIATech, Germany), PROX-1 (dilution 1:50, available from AngioBio, US), podoplanin (dilution 1:50, available from AngioBio, US), vascular endothelium growth factor receptor 3 (VEGF R3) (dilution 1:50, available from Santa Cruz, US), E-selectin/CD62E (dilution 1:50, available from R&D systems, US), P-selectin/CD62P (dilution 1:50, available from R&D systems, US), vascular cell adhesion molecule (VCAM)-1/CD106 (dilution 1:50, available from R&D systems, US), and intercellular adhesion molecule (ICAM)-1/CD54 (dilution 1:50, available from R&D systems, US). Before the staining, permeabilization of the cultured cells with 0.1% TRITON-X was performed. Then, the cells were stained using the following antibodies: ALEXA FLUOR 488 chicken anti-rabbit IgG or ALEXA FLUOR 488 donkey anti-mouse IgG (available from Invitrogen, US). The nuclei of the cultured cells were counter-stained and mounted with ProLong Gold antifade reagent with 4′-6-diamidine-2-phenylindole (DAPI) (available from Molecular Probes, US). The cultured cells were examined by a fluorescent microscope (available from Leica, Germany) and photographed. […]

[5] = system: P-selectin on human LECs; experiment: Immunohistochemical expression of P-selectin on cultured human LECs; settings: 48 hrs. treatment with 100 ng/mL IL-6, 100 ng/mL VEGF-A, or 500 ng/mL VEGF-C
Method: as §1, §2
Before primary staining, the cultured cells were permeabilized with 0.1% TRITON-X. After washing three times in PBS, the cells were incubated for 1 hr. at room temperature with 1:100 diluted ALEXA FLUOR 488 donkey anti-mouse IgG (available from Invitrogen, US). […]

[6] = system: VCAM-1 on human LECs; experiment: Immunohistochemical expression of VCAM-1 on cultured human LECs; settings: for staining with VCAM-1 on human LECs: 48 hrs. treatment with 100 ng/mL IL-6, 100 ng/mL VEGF-A, or 500 ng/mL VEGF-C; for expression of VCAM-1 on human LECs: 18 hrs.-stimulation with 10 ng/mL chemokine
Method: as §1, §2, §3, §4

[7] = system: human LECs; experiment: Proliferative ability of human LECs with lymphangiogenic factors
[8] = 48 hrs. treatment with 100 ng/mL IL-6, 100 ng/mL VEGF-A, or 500 ng/mL VEGF-C
[9] = 18 hrs.-stimulation with 10 ng/mL chemokine

| Molecule | effect on MDA-MB-231 supernatant-mediated expression of ICAM-1 on human LECs [3] | proliferative ability of the LECs [7] | expression of E-selectin on human LECs [4, 9] | expression of ICAM-1 on human LECs [2] | expression of VCAM-1 on human LECs [6] | other results |
| --- | --- | --- | --- | --- | --- | --- |
| Cc1ccc(C(=O)Nc2ccc(S(=O)(=O)O)c3cc(S(=O)(=O)O)cc(S(=O)(=O)O)c23)cc1NC(=O)c1cccc(NC(=O)Nc2cccc(C(=O)Nc3cc(C(=O)Nc4ccc(S(=O)(=O)O)c5cc(S(=O)(=O)O)cc(S(=O)(=O)O)c45)ccc3C)c2)c1 [suramin] | significant reduction |  |  |  |  | effect on MDA-MB-231 supernatant-mediated increase of attachment of carcinoma cells to human LECs ([1]; 48 hrs. simultaneous treatment with 10^−6M suramin): significant reduction; effect on ATP-mediated increased attachment of carcinoma cells to LECs ([1]; simultaneous treatment with 10^−6M suramin, 10^−7M ATP 48 hrs.): significantly reduced; effect on ATP-mediated expression of ICAM-1 on LECs ([2]; simultaneous treatment with 10^−7M or 10^−6M suramin, 10^−7M ATP, p<0.01, n=5): significant reduction |
| C#CCn1c(=O)c2c(ncn2C)n(C)c1=O [DMPX, 3,7-dimethyl-1-propargyl xanthine] | no significant effect |  |  |  |  |  |
| IL-6: cytokine |  |  |  |  |  | expression of E-selectin on human LECs [4, 8]: No or little expression; staining with ICAM-1 on human LECs [2]: Slight staining; staining by P-selectin antiserum on human LECs [5]: strongly stained; staining with VCAM-1 on human LECs [6]: Slight staining |
| VEGF |  | Sthenia of proliferative ability |  |  |  |  |
| CCCn1c(=O)c2[nH]c(C3CCCC3)nc2n(CCC)c1=O [DPCPX, 8-cyclopentyl-1,3-dipropylxanthine] | no significant effect |  |  |  |  |  |
| basic-FGF: basic fibroblast growth factor, lymphangiogenic factor |  | Sthenia of proliferative ability |  |  |  |  |
| B1 |  |  | Little or no expression | slight staining | Little or no expression |  |
| B2 |  |  | Little or no expression | slight staining | Little or no expression |  |
| B3 |  |  | Little or no expression | slight staining | Little or no expression |  |
| B4 |  | Sthenia of proliferative ability |  |  |  | expression of E-selectin on human LECs [4, 8]: No or little expression; staining with ICAM-1 on human LECs [2]: Slight staining; staining by P-selectin antiserum on human LECs [5]: strongly stained; staining with VCAM-1 on human LECs [6]: Slight staining |
